Results published in patent publication US20170209564A1.

Columns and labels:
Conditions in all cases: remark: other sources report otherwise
113E7 = assay: ELISA signal over HTRF expression signal, HEK293F
115A1 = assay: ELISA signal over HTRF expression signal, HEK293F
127H1 = assay: ELISA signal over HTRF expression signal, HEK293F
131B5 = assay: ELISA signal over HTRF expression signal, HEK293F
220C9 = assay: ELISA signal over HTRF expression signal, HEK293F
71H2 = assay: ELISA signal over HTRF expression signal, HEK293F
74H9 = assay: ELISA signal over HTRF expression signal, HEK293F
10F9 = assay: ELISA signal over HTRF expression signal, P. pastoris
12C6 = assay: as above
2C4 = assay: as above
4C1 = assay: as above
51G10 = assay: as above
53G10 = assay: as above
56D2 = assay: as above
60A2 = assay: as above
63D3 = assay: as above
67C11 = assay: as above
69G8 = assay: as above
6A1 = assay: as above
71E7 = assay: as above
72D4 = assay: as above
75G5 = assay: as above
75H8 = assay: as above
76D10 = assay: as above
78F11 = assay: as above
79F8 = assay: as above
84B8 = assay: as above
850 = assay: as above
86B4 = assay: as above
86H9 = assay: as above
89F11 = assay: as above
91C8 = assay: as above
96A7 = assay: as above
97G10 = assay: as above
9C6 = assay: as above
[1] = target: T1, H1-mini2-cluster1+5+6-GCN4 without leader sequence and with FLAG-thrombin-foldon-HIS; assay: ELISA, coated CR6261, HEK293F medium; average of the parental
[2] = target: T1, H1-mini2-cluster1+5+6-GCN4 without …; assay: ELISA, coated CR6261, P. pastoris medium; average of the parental

B1: CR6261 (antibody, V domains shown)
VH: EVQLVESGAEVKKPGSSVKVSCKASGGPFRSYAISWVRQAPGQGPEWMGGIIPIFGTTKYAPKFQGRVTITADDFAGTVYMELSSLRSEDTAMYYCAKHMGYQVRETMDVWGKGTTVTVSS
VL: QSVLTQPPSVSAAPGQKVTISCSGSSSNIGNDYVSWYQQLPGTAPKLLIYDNNKRPSGIPDRFSGSKSGTSATLGITGLQTGDEANYYCATWDRRPTAYVVFGGGTKLTVLG
With B1 the fold increase of ratio over parental SEQ ID NO: 6 (113E7) was 2.87, the ratio (binding signal/HTRF signal) (113E7) was 49.9 and the fold increase of ratio over parental SEQ ID NO: 6 (115A1) was 3.14. For the same binder, the ratio (binding signal/HTRF signal) (115A1) was 54.5, the fold increase of ratio over parental SEQ ID NO: 6 (127H1) was 4.25 and the ratio (binding signal/HTRF signal) (127H1) was 73.8. The fold increase of ratio over parental SEQ ID NO: 6 (131B5) was 2.36, the ratio (binding signal/HTRF signal) (131B5) was 41 and the fold increase of ratio over parental SEQ ID NO: 6 (220C9) was 3. For the same binder, the ratio (binding signal/HTRF signal) (220C9) was 52.1, the fold increase of ratio over parental SEQ ID NO: 6 (71H2) was 3.61 and the ratio (binding signal/HTRF signal) (71H2) was 62.7. It also gave a fold increase of ratio over parental SEQ ID NO: 6 (74H9) of 4.37, a ratio (binding signal/HTRF signal) (74H9) of 75.8 and a fold increase of ratio over parental SEQ ID NO: 6 (10F9) of 3.93. It also gave a ratio (binding signal/HTRF signal) (10F9) of 23.3, a fold increase of ratio over parental SEQ ID NO: 6 (12C6) of 2.43 and a ratio (binding signal/HTRF signal) (12C6) of 14.4. It also gave a fold increase of ratio over parental SEQ ID NO: 6 (2C4) of 4.29, a ratio (binding signal/HTRF signal) (2C4) of 25.5 and a fold increase of ratio over parental SEQ ID NO: 6 (4C1) of 3.92. The ratio (binding signal/HTRF signal) (4C1) was 23.3, the fold increase of ratio over parental SEQ ID NO: 6 (51G10) was 3.73 and the ratio (binding signal/HTRF signal) (51G10) was 22.1. It also gave a fold increase of ratio over parental SEQ ID NO: 6 (53G10) of 2.93, a ratio (binding signal/HTRF signal) (53G10) of 17.4 and a fold increase of ratio over parental SEQ ID NO: 6 (56D2) of 2.3. It also gave a ratio (binding signal/HTRF signal) (56D2) of 13.7, a fold increase of ratio over parental SEQ ID NO: 6 (60A2) of 2.53 and a ratio (binding signal/HTRF signal) (60A2) of 15. For the same binder, the fold increase of ratio over parental SEQ ID NO: 6 (63D3) was 1.87, the ratio (binding signal/HTRF signal) (63D3) was 11.1 and the fold increase of ratio over parental SEQ ID NO: 6 (67C11) was 3.57. The ratio (binding signal/HTRF signal) (67C11) was 21.2, the fold increase of ratio over parental SEQ ID NO: 6 (69G8) was 8.55 and the ratio (binding signal/HTRF signal) (69G8) was 50.8. It also gave a fold increase of ratio over parental SEQ ID NO: 6 (6A1) of 4.63, a ratio (binding signal/HTRF signal) (6A1) of 27.5 and a fold increase of ratio over parental SEQ ID NO: 6 (71E7) of 3.19. For the same binder, the ratio (binding signal/HTRF signal) (71E7) was 19, the fold increase of ratio over parental SEQ ID NO: 6 (72D4) was 6.25 and the ratio (binding signal/HTRF signal) (72D4) was 37.1. For the same binder, the fold increase of ratio over parental SEQ ID NO: 6 (75G5) was 6.38, the ratio (binding signal/HTRF signal) (75G5) was 37.9 and the fold increase of ratio over parental SEQ ID NO: 6 (75H8) was 1.73. The ratio (binding signal/HTRF signal) (75H8) was 10.2, the fold increase of ratio over parental SEQ ID NO: 6 (76D10) was 1.97 and the ratio (binding signal/HTRF signal) (76D10) was 11.7. For the same binder, the fold increase of ratio over parental SEQ ID NO: 6 (78F11) was 3.41, the ratio (binding signal/HTRF signal) (78F11) was 20.2 and the fold increase of ratio over parental SEQ ID NO: 6 (79F8) was 2.64. The ratio (binding signal/HTRF signal) (79F8) was 15.7, the fold increase of ratio over parental SEQ ID NO: 6 (84B8) was 9.71 and the ratio (binding signal/HTRF signal) (84B8) was 57.7. For the same binder, the fold increase of ratio over parental SEQ ID NO: 6 850 was 4.07, the ratio (binding signal/HTRF signal) 850 was 24.2 and the fold increase of ratio over parental SEQ ID NO: 6 (86B4) was 13.1. For the same binder, the ratio (binding signal/HTRF signal) (86B4) was 77.7, the fold increase of ratio over parental SEQ ID NO: 6 (86H9) was 5.77 and the ratio (binding signal/HTRF signal) (86H9) was 34.3. It also gave a fold increase of ratio over parental SEQ ID NO: 6 (89F11) of 2.42, a ratio (binding signal/HTRF signal) (89F11) of 14.4 and a fold increase of ratio over parental SEQ ID NO: 6 (91C8) of 3.51. The ratio (binding signal/HTRF signal) (91C8) was 20.8, the fold increase of ratio over parental SEQ ID NO: 6 (96A7) was 1.85 and the ratio (binding signal/HTRF signal) (96A7) was 11. The fold increase of ratio over parental SEQ ID NO: 6 (97G10) was 2.12, the ratio (binding signal/HTRF signal) (97G10) was 12.6 and the fold increase of ratio over parental SEQ ID NO: 6 (9C6) was 5.54. For the same binder, the ratio (binding signal/HTRF signal) (9C6) was 32.9, the CR6261 binding signal [1] was 5.66e+06 and the CR6261 binding signal [2] was 238000.
